Results from article PMC5628404, “Central catalytic domain of BRAP (RNF52) recognizes the types of ubiquitin chains and utilizes oligo-ubiquitin for ubiquitylation” (Biochemical Journal, 2017).

Target: T1, M1-linked di-ubiquitin chain (M1-Ub2) (human, UniProt P0CG48 1-76; P0CG48 1-76)
T1 construct: ubiquitin unit 1 of 2, joined head to tail (M1 linkage); from polyubiquitin-C (UBC), human; ubiquitin unit 2 of 2, joined head to tail (M1 linkage); One polypeptide of two ubiquitin units joined by a peptide bond G76-M1; also called linear di-ubiquitin; source: E. coli KRX, purified (method of Pickart and Raasi); made in the authors' laboratory
Test: SPR; Biacore 3000; ubiquitin monomer or ubiquitin chains amine-coupled to a CM5 chip; BRAP as analyte, serially diluted; 10 mM HEPES-NaOH pH 7.5, 150 mM NaCl, 0.005% surfactant P20; 25°C
Conditions: both partners purified

Kd [nM] | binding result | Binder
95.1 | – | BRAP (124–569) (RNF52 domain) (domain or fragment, human, UniProt Q7Z569 124-569, looked up, The construct had the tag, a TEV site and a GSSGSSG linker at the N-terminus; after TEV cleavage the linker probably stays on the protein (surmised); also called RNF52 domain of BRAP; central catalytic domain of BRAP; source: cell-free synthesis in E. coli S30 extract, zinc supplemented; purified (HisTrap, TEV cleavage, ion exchange, gel filtration)) DQISFFSGNPSVEIVHGIMHLYKTNKMTSLKEDVRRSAMLCILTVPAAMTSHDLMKFVAPFNEVIEQMKIIRDSTPNQYMVLIKFRAQADADSFYMTCNGRQFNSIEDDVCQLVYVERAEVLKSEDGASLPVMDLTELPKCTVCLERMDESVNGILTTLCNHSFHSQCLQRWDDTTCPVCRYCQTPEPVEENKCFECGVQENLWICLICGHIGCGRYVSRHAYKHFEETQHTYAMQLTNHRVWDYAGDNYVHRLVASKTDGKIVQYECEGDTCQEEKIDALQLEYSYLLTSQLESQRIYWENKIVRIEKDTAEEINNMKTKFKETIEKCDNLEHKLNDLLKEKQSVERKCTQLNTKVAKLTNELKEEQEMNKCLRANQVLLQNKLKEEERVLKETCDQKDLQITEIQEQLRDVMFYLETQQKINHLPAETRQEIQEGQINIAMASA
– | binds | BRAP (1–592) (full-length) (natural protein, human, UniProt Q7Z569 1-592, looked up, The construct had the tag, a TEV site and a GSSGSSG linker at the N-terminus; after TEV cleavage the linker probably stays on the protein (surmised); also called full-length BRAP; BRAP2; source: cell-free synthesis in E. coli S30 extract, zinc supplemented; purified (MBPTrap, TEV cleavage, ion exchange, gel filtration); not shown: MBP, N-terminal, cleaved) MSVSLVVIRLELAEHSPVPAGFGFSAAAGEMSDEEIKKTTLASAVACLEGKSPGEKVAIIHQHLGRREMTDVIIETMKSNPDELKTTVEERKSSEASPTAQRSKDHSKECINAAPDSPSKQLPDQISFFSGNPSVEIVHGIMHLYKTNKMTSLKEDVRRSAMLCILTVPAAMTSHDLMKFVAPFNEVIEQMKIIRDSTPNQYMVLIKFRAQADADSFYMTCNGRQFNSIEDDVCQLVYVERAEVLKSEDGASLPVMDLTELPKCTVCLERMDESVNGILTTLCNHSFHSQCLQRWDDTTCPVCRYCQTPEPVEENKCFECGVQENLWICLICGHIGCGRYVSRHAYKHFEETQHTYAMQLTNHRVWDYAGDNYVHRLVASKTDGKIVQYECEGDTCQEEKIDALQLEYSYLLTSQLESQRIYWENKIVRIEKDTAEEINNMKTKFKETIEKCDNLEHKLNDLLKEKQSVERKCTQLNTKVAKLTNELKEEQEMNKCLRANQVLLQNKLKEEERVLKETCDQKDLQITEIQEQLRDVMFYLETQQKINHLPAETRQEIQEGQINIAMASASSPASSGGSGKLPSRKGRSKRGK
